From patent publication US20240109974A1 (SHANDONG SIMCERE BIOPHARMACEUTICAL, published 2024)
Where a chain is given by its changes, count along the chain named. One block for each binder: values may come before it.

Key:
[1] = biological target: T1, Cynomolgus TNFR2-His (Sino 90102-C08H) (cynomolgus monkey, UniProt A0A2K5VET2 132-366); test: ELISA, plate coated with Cynomolgus TNFR2-His, detection with anti-human IgG Fc-HRP [panel A]
T1 construct: Bought protein; also called cynomolgus monkey TNFR2; recombinant cynomolgus monkey TNFR2 protein; not shown: His tag
T1 sequence: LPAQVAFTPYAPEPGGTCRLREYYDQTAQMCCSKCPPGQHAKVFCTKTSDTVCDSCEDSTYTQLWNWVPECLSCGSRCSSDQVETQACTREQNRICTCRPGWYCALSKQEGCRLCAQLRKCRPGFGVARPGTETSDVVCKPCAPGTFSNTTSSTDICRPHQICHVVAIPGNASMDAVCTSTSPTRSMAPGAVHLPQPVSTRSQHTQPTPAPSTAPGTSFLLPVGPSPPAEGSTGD
Procedure: (§1) The test humanized antibody against TNFR2 (as described in Example 1, the antibody was comprised of variable regions linked to IgG-Fc; the WT chimeric antibody also adopted the IgG-Fc structure) was subjected to 3.33-fold gradient dilution, loaded with 100 μl/well, and incubated with shaking at room temperature for 1.5 hours. The plate was washed, and then a working solution of murine anti-human IgG Fc-HRP (diluted at 1:10000) was added, loaded with 100 μl/well, and incubated with shaking at room temperature for 1.0 hour. The plate was washed again, and then the substrate TMB of HRP was added to develop colour. A stop solution was added to stop the reaction, and then a microplate reader (MD 13) was used to read the absorbance value. The binding curve of an antibody was drawn with antibody concentration as the abscissa and corresponding OD value as the ordinate, and fitted with four parameters (GraphPad Prism9) to calculate the EC50 value. The smaller the EC50 value, the stronger the binding ability of an antibody to human/cynomolgus monkey TNFR2. The binding effect of a humanized antibody was normalized to its corresponding human-murine chimeric antibody WT (see SEQ ID NOs: 38-43 for the sequence). The higher the percentage value, the better the binding effect of the humanized antibody. […]

[2] = biological target: T2, Human TNFR2-His (Sino 10417-H08H) (human, UniProt P20333 23-257); test: ELISA, plate coated with Human TNFR2-His, detection with anti-human IgG Fc-HRP [panel B]
T2 construct: Bought protein; also called recombinant human TNFR2 protein; not shown: His tag
T2 sequence (looked up): T1 sequence with G16S, P36S, Q117P, H164N, A210E, G216S, V223M
Procedure: as §1

[3] = biological target: T3, human TNFR2 (Novoprotein, Cat #C830) (human, UniProt P20333 23-257, limits assumed); test: competition ELISA: antibody titrated against human TNFα-Biotin on coated human TNFR2 (Novoprotein), detection with Streptavidin-HRP [panel B]
T3 construct: construct not described; also called human TNFR2 protein
T3 sequence (looked up): T1 sequence with G16S, P36S, Q117P, H164N, A210E, G216S, V223M
Procedure: 1 μg/ml human TNFR2 (Novoprotein, Cat #C830) was pre-coated with 100 μl/well […] in an ELISA plate. All the test TNFR2 antibodies were subjected to 2.5-fold gradient dilution from the highest concentration of 30 μg/ml; the diluted antibodies were mixed with 15 ng/ml human TNFα-Biotin (Acro Biosystem, Cat #TNA-H82E3) in equal volume, respectively; the resulting mixture was added to the ELISA plate at 100 μl/well, and incubated with shaking at room temperature for 2.0 hours. The plate was washed, and then a Streptavidin-HRP working solution (diluted at 1:10000) was added at 100 μl/well, and the mixture was incubated with shaking at room temperature for 40 minutes. The plate was washed again, and then the substrate TMB of HRP was added to develop colour. A stop solution was added to stop the reaction, and then a microplate reader (MD 13) was used to read the absorbance value. The inhibitory curve of an antibody was drawn with antibody concentration as the abscissa and corresponding OD value as the ordinate, and fitted with four parameters (GraphPad Prism9) to calculate the IC50 value. The smaller the IC50 value, the stronger the ability of an antibody to inhibit the binding of human TNFα to human TNFR2. The blocking effect of a humanized antibody was normalized to its corresponding human-murine chimeric antibody WT. […]

EC50 (read off the curve) [1]: ~0.01 µg/mL
B1: 001-WT (antibody, V domains shown)
VH: EVQLQESGGGLVQPGGSLNLSCAASGFAFSTYDLSWVRQTPEKRLEWVAYINNGGISTYYSDTVKGRFTISRDNAKNTLYLQMSSLKSEDTAMYYCVRGPFYGSANYFDYWGQGTTVTVSS
VL: EIVMTQSPASLSLSVGETVTITCRTSESIYSNLPWYQQKQGKSPQLLVYDATKLAEGVPSRFSGSESGTQYSLKINSLQSEDFGTYYCQHFWVTPWTFGGGTKLEIK
notes: Human-murine chimeric wild-type molecule; also called human-murine chimeric antibody WT of #001

EC50 (read off the curve) [2]: ~0.02 µg/mL
IC50 (read off the curve) [3]: ~0.6 µg/mL
B2: 219-WT (antibody, V domains shown)
VH: EVQLQESGAELVRPGASVKLSCKASGYSFTNYWMNWVKQRPGQGLEWIGMIHPSDTETRLNQNFKDKATLTVDKSSSTSYMQLSSPTSEDSAVYYCARGEGLGAARSVSMDYWGQGTTVTVSS
VL: DILMTQSPSSLSASLGDRVTISCRASQDISNYLNWYQQKPDGTVKVLIYYTAILHSGVPSRFSGSGSGTDYSLTISNLEQEDIATYFCQQGNTLPWTFGGGTKLEIK
notes: Human-murine chimeric wild-type molecule
